Like-named read-outs stand apart in the source and are kept apart here.
Key:
[1] = target: T1, mouse PD-L1 on CHO cells that stably expressed mouse PD-L1 (mouse, UniProt Q9EP73 19-290); assay: flow cytometry competition: biotin-labelled mouse PD-1-Fc at a subsaturated concentration on CHO cells stably expressing mouse PD-L1, antibody titrated, streptavidin R-PE detection
T1 construct: whole, on cells; also called CHO cells expressing mouse PD-L1
Procedure: After cell washing, Streptavidin R-PE Conjugate (life technology, SA10041) was added and incubated (4° C., 30 min). After cell washing, the fluorescence intensity was detected by flow cytometer (Intellicyt iQue Screener).

[2] = target: T2, human PD-L1 on cells (CHO cells that stably expressed human PD-L1; MDA-MB-231 cells) (human, UniProt Q9NZQ7 19-290); assay: flow cytometry competition: biotin-labelled human PD-1-Fc at a subsaturated concentration on CHO cells stably expressing human PD-L1, antibody titrated, streptavidin R-PE detection
T2 construct: whole, on cells; Stably expressed on CHO cells; also called CHO cells expressing human PD-L1
T2 sequence (Q9NZQ7 19-290): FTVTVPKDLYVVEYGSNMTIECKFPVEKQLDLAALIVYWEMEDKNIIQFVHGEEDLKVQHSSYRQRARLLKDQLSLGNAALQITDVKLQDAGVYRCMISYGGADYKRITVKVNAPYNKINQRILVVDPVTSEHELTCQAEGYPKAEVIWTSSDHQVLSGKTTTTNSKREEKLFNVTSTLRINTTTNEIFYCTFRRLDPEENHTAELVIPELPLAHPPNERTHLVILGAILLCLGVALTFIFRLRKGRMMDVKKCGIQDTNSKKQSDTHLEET
Procedure: (§1) After cell washing, Streptavidin R-PE Conjugate (life technology, SA10041) was added and incubated (4° C., 30 min). After cell washing, the fluorescence intensity was detected by a flow cytometer (Intellicyt iQue Screener).

[3] = target: T3, recombinant human PD-L1-Fc protein (Origincell Therapeutics Co., Ltd.) (human, UniProt Q9NZQ7 19-238, limits assumed); assay: BLI (Octet RED384), biotinylated antigen on SA sensor, antibody in solution
T3 construct: Labeled with biotin (EZ-Link Sulfo-NHS-LC-Biotin) for the BLI assays; unlabeled in the phage ELISA; also called Human PD-L1-Fc-Biotin; not shown: Fc part
T3 sequence (Q9NZQ7 19-238 limits assumed): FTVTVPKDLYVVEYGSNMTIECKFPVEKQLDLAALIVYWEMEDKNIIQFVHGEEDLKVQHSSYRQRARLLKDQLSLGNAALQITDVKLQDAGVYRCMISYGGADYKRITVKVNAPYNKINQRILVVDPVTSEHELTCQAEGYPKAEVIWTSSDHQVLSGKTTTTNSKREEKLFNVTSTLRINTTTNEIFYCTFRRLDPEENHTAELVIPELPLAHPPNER
Procedure: (§2) The antigen-antibody binding kinetics were analyzed by a biofilm interference (BLI) technology, using a molecular interaction analyzer (Octet RED384, purchased from Pall ForteBio Analytics Co., Ltd.) and using a PBS buffer containing 0.1% BSA and 0.02% Tween 20. A biotin-coupled antigen protein with a concentration of 50 nM was fixed with the SA sensor (Pall ForteBio Analytics Co., Ltd.), and bound at 1500 rpm for 10 minutes; then it was bound with the double-diluted antibody solution at 1500 rpm for 10 minutes; and finally dissociated at 1500 rpm for 10 minutes. The obtained results would be analyzed by Octet Data Analysis 9.0 software (Pall ForteBio Analytics Co., Ltd.) to give the KD, Kₒₙ (1/Ms) and Koff (1/s).

[4] = target: T4, recombinant mouse PD-L1-Fc protein (M5251, ACROBiosystems Inc.) (mouse, UniProt Q9EP73 19-238); assay: as above
T4 construct: Bought; Labeled with biotin for the BLI assays; unlabeled in the phage ELISA; also called Mouse PD-L1-Fc-Biotin; not shown: Fc part
T4 sequence (Q9EP73 19-238 limits assumed): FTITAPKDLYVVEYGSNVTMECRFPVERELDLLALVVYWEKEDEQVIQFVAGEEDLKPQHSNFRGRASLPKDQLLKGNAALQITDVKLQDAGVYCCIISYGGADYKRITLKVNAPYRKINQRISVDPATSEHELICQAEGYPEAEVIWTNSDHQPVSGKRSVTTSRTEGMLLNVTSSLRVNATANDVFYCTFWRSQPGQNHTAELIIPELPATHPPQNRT
Procedure: as §2

[5] = target: T5, recombinant Macaca fascicularis PD-L1-Fc (90251-CO2H, Sino Biological Inc.) (Macaca fascicularis, UniProt G7PSE7 19-239); assay: as above
T5 construct: Bought; also called Macaca Fascicularis PD-L1-Fc-Biotin; not shown: Fc part
T5 sequence (G7PSE7 entry or part of it): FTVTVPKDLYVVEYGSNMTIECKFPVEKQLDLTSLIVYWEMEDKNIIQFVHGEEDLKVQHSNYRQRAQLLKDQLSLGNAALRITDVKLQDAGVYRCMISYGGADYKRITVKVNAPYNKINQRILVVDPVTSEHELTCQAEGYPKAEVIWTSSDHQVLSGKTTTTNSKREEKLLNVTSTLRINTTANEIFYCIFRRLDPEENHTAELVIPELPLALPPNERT
Procedure: as §2

[6] = target: T6, recombinant dog PD-L1-Fc (70110-DO2H, Sino Biological Inc.) (dog, UniProt E2RKZ5 19-236, Biotinylated on lysines/amines (EZ-Link Sulfo-NHS-LC-Biotin); positions not defined); assay: as above
T6 construct: Bought; also called Dog PD-L1-Fc-Biotin; canine PD-L1; not shown: Fc part and any linker of the bought fusion (Sino Biological 70110-DO2H)
T6 sequence: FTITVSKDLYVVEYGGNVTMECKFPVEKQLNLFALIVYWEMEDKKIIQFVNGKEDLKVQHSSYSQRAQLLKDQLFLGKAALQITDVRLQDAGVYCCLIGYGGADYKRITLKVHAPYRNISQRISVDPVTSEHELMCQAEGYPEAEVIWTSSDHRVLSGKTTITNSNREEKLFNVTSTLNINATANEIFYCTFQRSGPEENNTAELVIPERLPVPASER
Procedure: as §2

[7] = target: T2, human PD-L1 on cells (CHO cells that …); assay: flow cytometry competition: biotin-labelled human PD-1-Fc at a subsaturated concentration on CHO cells stably expressing human PD-L1, antibody titrated, streptavidin R-PE detection; remark: listed apart in the source
Procedure: as §1

[8] = target: T1, mouse PD-L1 on CHO cells that stably …; assay: flow cytometry competition: biotin-labelled mouse PD-1-Fc at a subsaturated concentration on CHO cells stably expressing mouse PD-L1, antibody titrated, streptavidin R-PE detection; remark: listed apart in the source
Procedure: as §1

[9] = target: T2, human PD-L1 on cells (CHO cells that …); assay: flow cytometry on MDA-MB-231 cells (human PD-L1), anti-human IgG-Fc DyLight 650 detection
Procedure: Human breast cell strain MDA-MB-231 (Shanghai Chinese Academy of Sciences Cell Library) highly expresses the human PD-L1 molecule. […] After cell washing, Goat F(ab′)₂ Anti-Human IgG-Fc (DyLight 650) (ab98593, abcam) was added and incubated at 4° C. for 30 min. After cell washing, the fluorescence intensity was detected by a flow cytometer (Intellicyt iQue Screener).

[10] = target: T2, human PD-L1 on cells (CHO cells that …); assay: flow cytometry on CHO cells stably expressing human PD-L1, anti-human IgG-Fc DyLight 650 detection
Procedure: After cell washing, Goat F(ab′)₂ Anti-Human IgG-Fc (DyLight 650) (ab98593, abcam) was added and incubated at 4° C. for 30 min. After cell washing, the fluorescence intensity was detected by a flow cytometer (Intellicyt iQue Screener).

[11] = target: T1, mouse PD-L1 on CHO cells that stably …; assay: flow cytometry competition: biotin-labelled mouse PD-1-Fc at a subsaturated concentration on CHO cells stably expressing mouse PD-L1, antibody titrated, streptavidin R-PE detection; remark: listed apart in the source
Procedure: as §1

[12] = target: T1, mouse PD-L1 on CHO cells that stably …; assay: flow cytometry on CHO cells stably expressing mouse PD-L1, anti-human IgG-Fc DyLight 650 detection
Procedure: The mixture was mixed well and incubated at 4° C. for 1 hr. After cell washing, Goat F(ab′)₂ Anti-Human IgG-Fc (DyLight 650) (ab98593) was added and incubated at 4° C. for 30 min. After cell washing, the fluorescence intensity was detected by a flow cytometer (Intellicyt iQue Screener).

[13] = target: T2, human PD-L1 on cells (CHO cells that …); assay: flow cytometry on CHO cells stably expressing human PD-L1, anti-human IgG-Fc DyLight 650 detection; remark: listed apart in the source
Procedure: The mixture was mixed well and incubated at 4° C. for 1 hr. After cell washing, Goat F(ab)₂ Anti-Human IgG-Fc (DyLight 650) (ab98593, Abcam) was added and incubated at 4° C. for 30 min. After cell washing, the fluorescence intensity was detected by a flow cytometer (Intellicyt iQue Screener).

[14] = target: T7, recombinant human PD-L1-His protein (Origincell Therapeutics Co., Ltd.) (human, UniProt Q9NZQ7 19-238, limits assumed); assay: BLI (Octet RED384), antibody on AHC sensor, PD-L1-His in solution
T7 construct: not shown: His tag
T7 sequence (Q9NZQ7 19-238 limits assumed): as the sequence (Q9NZQ7 19-238 limits assumed) above

T1 sequence (Q9EP73 19-290): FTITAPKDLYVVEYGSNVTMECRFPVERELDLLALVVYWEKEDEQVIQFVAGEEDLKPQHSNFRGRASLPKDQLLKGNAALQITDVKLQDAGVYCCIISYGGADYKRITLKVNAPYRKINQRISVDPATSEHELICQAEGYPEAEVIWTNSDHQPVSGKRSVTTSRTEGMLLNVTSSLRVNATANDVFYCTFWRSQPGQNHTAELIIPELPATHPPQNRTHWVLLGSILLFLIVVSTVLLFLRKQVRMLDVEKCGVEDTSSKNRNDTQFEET

Binder | IC50 (read off the curve) [1] [µg/mL] | IC50 (read off the curve) [2] | Kd [3] [nM] | koff [3] [s⁻¹] | kon [3] [M⁻¹ s⁻¹] | Kd [4] [nM] | koff [4] [s⁻¹] | kon [4] [M⁻¹ s⁻¹] | Kd [5] [nM] | koff [5] [s⁻¹] | kon [5] [M⁻¹ s⁻¹] | Kd [6] [nM] | koff [6] [s⁻¹] | kon [6] [M⁻¹ s⁻¹] | IC50 (read off the curve) [7] [nM] | IC50 (read off the curve) [8] [nM] | EC50 (read off the curve) [9] [nM] | EC50 (read off the curve) [10] [nM] | IC50 (read off the curve) [11] [nM] | EC50 (read off the curve) [12] [nM] | other results
anti-PD-L1 fully human antibody YN-002 (antibody, human IgG1, lambda, V domains shown, Intact IgG1,lambda antibody of phage antibody 1B10, expressed in 293F cells) VH: QVQLVQSGAEVRKPGSSVKVSCKASGGTFSSYAISWVRQAPGQGLEWMGRIIPILGIANYAQKFQGRVTITADKSTSTAYMELSSLRSEDTAVYYCARTMDGYSYGNFDYWGQGTLVTVSS VL: QSALTQPASVSGSPGQSITISCTGTSSDVGGYNYVSWYQQHPGKAPKLLIYGNSNRPSGVPDRFSGSKSGTSASLAITGLQAEDEADYYCQSYDSSLSGSVFGGGTKLTVLG | ~0.1 | ~1 µg/mL | 0.888 | 0.000594 | 669000 | 1.72 | 0.00168 | 977000 | 1.07 | 0.0019 | 1.77e+06 | 0.743 | 0.000759 | 1.02e+06 |  |  |  |  |  |  | 
PD-L1 antibody YN-036 (antibody, human IgG1, lambda, V domains shown, full-length IgG1,lambda) VH: QVQLVQSGAEVKKPGSSVKVSCKASRGPFSTYAISWVRQAPGQGLEWMGRIIPILGIANYAQKFQGRVTITADKSTSTAYMELSSLRSEDTAVYYCARTMGEYSYGNYDYWGQGTLVTVSS VL: QSALTQPASVSGSPGQSITISCTGTVSEVGGYNEVSWYQQHPGKAPKLMIYGNSNRPSGVSNRFSGSKSGNTASLTISGLQAEDEADYYCQSYDSSLSGTVFGGGTKLTVLG |  | ~3 nM |  |  |  |  |  |  |  |  |  |  |  |  | ~2 | ~5 | ~1 | ~4 | ~2 | ~4 | EC50 (read off the curve) [13]: 3 to 4 nM; Kd [14]: 0.474 nM; koff [14]: 0.000175 s⁻¹; kon [14]: 369000 M⁻¹ s⁻¹
PD-L1 antibody YN-035 (antibody, human IgG1, lambda, V domains shown, full-length IgG1,lambda) VH: QVQLVQSGAEVKKPGSSVKVSCKASRGPFSTYAISWVRQAPGQGLEWMGRIIPILGIANYAQKFQGRVTITADKSTSTAYMELSSLRSEDTAVYYCARTMEGYGFGNFDYWGQGTLVTVSS VL: QSALTQPASVSGSPGQSITISCTGTVSEVGGYNEVSWYQQHPGKAPKLMIYGNSNRPSGVSNRFSGSKSGNTASLTISGLQAEDEADYYCQSYDSSLSGTVFGGGTKLTVLG |  | ~3 nM |  |  |  |  |  |  |  |  |  |  |  |  | ~2 | ~5 | ~0.9 | ~4 | ~3 | ~6 | EC50 (read off the curve) [13]: 3 to 4 nM; Kd [14]: 0.452 nM; koff [14]: 0.000193 s⁻¹; kon [14]: 427000 M⁻¹ s⁻¹
anti-PD-L1 fully human antibody YN-003 (antibody, human IgG1, lambda, V domains shown, Germline version of YN-002; IgG1,lambda) VH: QVQLVQSGAEVKKPGSSVKVSCKASGGTFSSYAISWVRQAPGQGLEWMGRIIPILGIANYAQKFQGRVTITADKSTSTAYMELSSLRSEDTAVYYCARTMDGYSYGNFDYWGQGTLVTVSS VL: QSALTQPASVSGSPGQSITISCTGTSSDVGGYNYVSWYQQHPGKAPKLMIYGNSNRPSGVSNRFSGSKSGNTASLTISGLQAEDEADYYCQSYDSSLSGSVFGGGTKLTVLG | ~0.06 | ~0.2 µg/mL | 0.408 | 0.000611 | 1.5e+06 | 0.996 | 0.000997 | 1.03e+06 | 0.654 | 0.00136 | 2.08e+06 | 0.594 | 0.000514 | 864000 |  |  |  |  |  |  | 
